Results from the supplement of paper PMC7125110.
± gives the standard error. For part of these data: Fewer inactive variants are shown than the library holds.

B1: glmS ribozyme (parent)
chain: AUAAAAGCGCCAGAACUACAGAAAUGUAGUUGACGAGGAGGAGGUUUAUCGAAUUUUCGGCGGAUGCCUCCAAA

Legend:
Conditions in all cases: with glucosamine-6-phosphate
glucosamine-6-phosphate [1] = variants of: B1; experiment: kcat; higher = faster cleavage; RNA array
Procedure, shortened: (§1)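 Tiles bearing barcoded ribozyme variants, transcribed in situ by E. coli RNA polymerase on sequenced MiSeq chips, were imaged over ~14 h at 37 °C using a hybridised Cy3 probe. Glucosamine-6-phosphate was supplied at 40 μM to 10 mM in HEPES/KCl/Mg(OAc)2 buffer. kobs came from one- or two-exponential decay fits to normalised per-tile medians, and weighted Michaelis–Menten fits then provided kcat and KM.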

glucosamine-6-phosphate [2] = variants of: B1; experiment: KM; higher = weaker cofactor use; RNA array
Procedure, shortened: as §1

glucosamine-6-phosphate [3] = variants of: B1; experiment: self-cleavage kobs at 40 uM GlcN6P; higher = faster cleavage; RNA array
Procedure, shortened: as §1

glucosamine-6-phosphate [4] = variants of: B1; experiment: self-cleavage kobs at 640 uM GlcN6P; higher = faster cleavage; RNA array
Procedure, shortened: as §1

glucosamine-6-phosphate [5] = variants of: B1; experiment: self-cleavage kobs at 2500 uM GlcN6P; higher = faster cleavage; RNA array
Procedure, shortened: as §1

glucosamine-6-phosphate [6] = variants of: B1; experiment: self-cleavage kobs at 10000 uM GlcN6P; higher = faster cleavage; RNA array
Procedure, shortened: as §1

glucosamine-6-phosphate [7] = variants of: B1; experiment: self-cleavage kobs at 160 uM GlcN6P; higher = faster cleavage; RNA array
Procedure, shortened: as §1

Row | Variant | kcat (glucosamine-6-phosphate [1]) [s⁻¹] | KM (glucosamine-6-phosphate [2]) [µM] | self-cleavage kobs at 40 uM GlcN6P (glucosamine-6-phosphate [3]) [s⁻¹] | self-cleavage kobs at 640 uM GlcN6P (glucosamine-6-phosphate [4]) [s⁻¹] | self-cleavage kobs at 2500 uM GlcN6P (glucosamine-6-phosphate [5]) [s⁻¹] | self-cleavage kobs at 10000 uM GlcN6P (glucosamine-6-phosphate [6]) [s⁻¹] | self-cleavage kobs at 160 uM GlcN6P (glucosamine-6-phosphate [7]) [s⁻¹]
1 | A14C U65C | 8.26e-05 ± 1.1e-05 | 1220 ± 570 | < 1e-05 | 3.59e-05 ± 1.4e-05 | 4.9e-05 ± 1.1e-05 | 7.7e-05 ± 1.2e-05 | 
2 | A14U C68A | 2.98e-05 ± 1e-05 |  |  |  | 3.98e-05 ± 1.4e-05 |  | 
3 | A14C A53C | 0.00124 ± 0.00016 | 2550 ± 490 | 2.58e-05 ± 1.2e-05 | 0.000267 ± 3.4e-05 | 0.000659 ± 7.9e-05 | 0.000924 ± 0.00013 | 6.39e-05 ± 1e-05
4 | A14U U45C | 0.000739 ± 0.00014 | 3320 ± 1200 |  | 0.000105 ± 1.9e-05 | 0.000436 ± 6.7e-05 | 0.000531 ± 6e-05 | 
5 | A14U U45G | 0.00111 ± 0.00014 | 1850 ± 400 |  | 0.00033 ± 5.4e-05 | 0.000633 ± 0.00013 | 0.000917 ± 0.00013 | 8.17e-05 ± 2.1e-05
6 | A14C U57A | 0.00019 ± 1.7e-05 |  |  |  | 3.61e-05 ± 1.6e-05 | 9.25e-05 ± 2.2e-05 | 
7 | A14G G40U | 0.00991 ± 0.0013 | 1350 ± 250 | 0.000302 ± 4.1e-05 | 0.00267 ± 0.00043 | 0.00713 ± 0.0011 | 0.00879 ± 0.0013 | 0.00117 ± 0.00023
8 | A14G C67G C71U | 5.11e-05 ± 1.2e-05 |  |  | 9.52e-05 ± 3.5e-05 | 5.17e-05 ± 1.4e-05 | 4.43e-05 ± 1.3e-05 | 
9 | A14G U47A | 0.00972 ± 0.0015 | 275 ± 78 | 0.00113 ± 0.00022 | 0.00942 ± 0.0021 | 0.00943 ± 0.002 | 0.00772 ± 0.0019 | 0.0041 ± 0.0011
10 | A15C A52G | 0.000755 ± 0.00022 | 7750 ± 3200 |  | 6.9e-05 ± 1.1e-05 | 0.000164 ± 2e-05 | 0.000449 ± 5.5e-05 | 
11 | A14C A39G | 0.0127 ± 0.0026 | 3770 ± 970 | 0.000147 ± 1.6e-05 | 0.00155 ± 0.0003 | 0.0051 ± 0.00078 | 0.0095 ± 0.0016 | 0.000352 ± 0.00017
12 | A14C A39U | 0.00308 ± 0.00063 | 2440 ± 670 | 6.46e-05 ± 6.9e-06 | 0.000605 ± 6.5e-05 | 0.00174 ± 0.00021 | 0.00242 ± 0.00026 | 0.000162 ± 1.9e-05
13 | A14G C68A U69G | 0.000118 ± 2.9e-05 |  |  | 0.000112 ± 2.8e-05 | 9.76e-05 ± 1.8e-05 |  | 
14 | A14G A64C | 0.000278 ± 1.8e-05 | 906 ± 140 |  | 0.000118 ± 1.4e-05 | 0.000217 ± 3.3e-05 | 0.000247 ± 3e-05 | 
15 | A14U G41C | 8.09e-05 ± 1.1e-06 | 2290 ± 95 |  |  | 4.2e-05 ± 1.3e-05 | 6.58e-05 ± 1.4e-05 | 
16 | A14U G41A | 0.000406 ± 0.00011 |  |  | 9.05e-05 ± 2e-05 | 0.000422 ± 8.6e-05 | 0.000317 ± 5e-05 | 
17 | G13U U31C | 0.000427 ± 1.8e-05 | 1040 ± 110 |  | 0.00017 ± 2.8e-05 | 0.000297 ± 3.8e-05 | 0.000387 ± 5.1e-05 | 4.8e-05 ± 2.1e-05
18 | G13U U31G | 0.000294 ± 0.0001 |  |  | 4.24e-05 ± 8.5e-06 | 0.000226 ± 2.7e-05 | 0.000207 ± 2.6e-05 | 2.89e-05 ± 1.3e-05
19 | A14C U54C | 0.00767 ± 0.0019 | 3550 ± 1100 | 0.000111 ± 1.2e-05 | 0.000989 ± 0.00014 | 0.00305 ± 0.00048 | 0.00592 ± 0.00066 | 0.000296 ± 4.4e-05
20 | A14G U45A | 0.077 ± 0.015 | 1340 ± 310 | 0.00233 ± 0.00047 | 0.0331 ± 0.0099 | 0.0452 ± 0.016 | 0.0701 ± 0.026 | 0.00764 ± 0.0014
21 | G13U U65G C67G | 7.46e-05 ± 2.9e-06 | 808 ± 170 |  |  | 6.05e-05 ± 2.3e-05 | 6.81e-05 ± 1.5e-05 | 
22 | A14C U45A | 0.00955 ± 0.0035 |  | 0.000245 ± 3.9e-05 | 0.00207 ± 0.00049 | 0.00469 ± 0.00097 | 0.0131 ± 0.0028 | 0.000909 ± 0.00039
23 | A14U C61A C70A | 1.21e-05 ± 3.3e-06 |  |  |  |  |  | 
24 | A14C U31A A64C | 1.75e-05 ± 3.8e-06 |  |  |  |  |  | < 1e-05
25 | A14U U31G | 0.00512 ± 0.0017 | 2230 ± 1100 | 0.000142 ± 2.1e-05 | 0.00115 ± 0.0003 | 0.00273 ± 0.0005 | 0.00424 ± 0.0007 | 0.000241 ± 5.5e-05
26 | A14U A64G | 0.00805 ± 0.003 | 2740 ± 1300 | 0.000177 ± 2.5e-05 | 0.00143 ± 0.00016 | 0.00635 ± 0.00079 | 0.00568 ± 0.00075 | 0.000391 ± 4.2e-05
27 | A14G C16A | 0.00509 ± 0.0016 | 847 ± 380 | 0.000249 ± 4.2e-05 | 0.0021 ± 0.00042 | 0.00276 ± 0.00082 | 0.00789 ± 0.0017 | 0.000745 ± 0.00023
28 | G13U G32U | 0.00043 ± 2.8e-05 | 3420 ± 370 |  | 6.64e-05 ± 8.3e-06 | 0.000182 ± 3.1e-05 | 0.000321 ± 3.4e-05 | 2.69e-05 ± 1.1e-05
